# In patent US20240390512A1, “METHODS OF TREATING CHEMOTHERAPY-RESISTANT CANCER WITH AN ANTIBODY-DRUG CONJUGATE” (DAIICHI SANKYO COMPANY, LIMITED, priority 2021, published 2024):
# Where a chain is given by its changes, count along the chain named.
# T1: human CDH6 (full-length and EC domain deletion mutants) (Homo sapiens, UniProt P55285, DEL160-268)
# T1 construct: each one of the five EC domains could be deleted from full-length human CDH6; 3xFLAG (deletion mutants only, from the vector p3×FLAG-CMV-9); expressed in transfected cells; host or cells: 293α cells
# T1 sequence (P55285 with tags, fused parts or gaps DEL160-268): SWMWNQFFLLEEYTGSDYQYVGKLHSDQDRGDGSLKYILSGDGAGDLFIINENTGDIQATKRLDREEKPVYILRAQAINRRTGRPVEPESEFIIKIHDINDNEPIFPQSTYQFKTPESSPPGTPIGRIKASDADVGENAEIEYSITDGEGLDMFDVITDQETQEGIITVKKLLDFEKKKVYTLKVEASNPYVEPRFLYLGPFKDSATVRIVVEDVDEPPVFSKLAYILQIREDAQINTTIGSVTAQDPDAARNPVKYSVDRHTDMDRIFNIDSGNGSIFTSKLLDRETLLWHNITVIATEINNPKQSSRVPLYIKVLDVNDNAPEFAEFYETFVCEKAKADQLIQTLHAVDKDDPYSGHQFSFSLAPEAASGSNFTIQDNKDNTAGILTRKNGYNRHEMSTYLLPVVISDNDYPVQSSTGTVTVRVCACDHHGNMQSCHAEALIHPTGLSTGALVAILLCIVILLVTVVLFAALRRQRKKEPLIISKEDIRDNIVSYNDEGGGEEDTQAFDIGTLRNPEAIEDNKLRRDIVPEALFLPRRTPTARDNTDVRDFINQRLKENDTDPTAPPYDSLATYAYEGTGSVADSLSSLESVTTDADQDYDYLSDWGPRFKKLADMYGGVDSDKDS
# T2: human CDH6 (full-length and EC domain deletion mutants) (Homo sapiens, UniProt P55285)
# T2 construct: each one of the five EC domains could be deleted from full-length human CDH6; 3xFLAG (deletion mutants only, from the vector p3×FLAG-CMV-9); expressed in transfected cells; host or cells: 293α cells
# T2 sequence (P55285 54-790): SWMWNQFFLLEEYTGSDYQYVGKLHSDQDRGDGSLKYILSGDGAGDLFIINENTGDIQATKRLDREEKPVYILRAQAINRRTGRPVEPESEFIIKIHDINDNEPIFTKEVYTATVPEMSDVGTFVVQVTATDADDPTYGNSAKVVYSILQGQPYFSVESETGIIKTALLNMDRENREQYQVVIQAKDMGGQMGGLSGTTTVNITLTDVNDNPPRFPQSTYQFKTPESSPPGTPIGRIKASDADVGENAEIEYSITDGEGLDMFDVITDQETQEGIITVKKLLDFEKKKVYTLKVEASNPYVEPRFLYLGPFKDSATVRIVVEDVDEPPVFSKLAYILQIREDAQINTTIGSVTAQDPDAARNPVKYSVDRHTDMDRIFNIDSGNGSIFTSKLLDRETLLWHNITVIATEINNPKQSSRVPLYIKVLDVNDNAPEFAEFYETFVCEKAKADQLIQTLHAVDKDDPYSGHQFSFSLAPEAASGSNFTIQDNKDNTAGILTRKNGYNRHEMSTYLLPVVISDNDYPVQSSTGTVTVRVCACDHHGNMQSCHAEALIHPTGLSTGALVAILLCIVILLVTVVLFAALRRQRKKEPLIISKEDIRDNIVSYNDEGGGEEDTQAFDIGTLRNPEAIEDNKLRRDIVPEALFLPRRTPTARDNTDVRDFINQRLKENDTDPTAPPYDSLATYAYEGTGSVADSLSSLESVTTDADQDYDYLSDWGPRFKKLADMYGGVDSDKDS
# B1: rG056: rat anti-human CDH6 monoclonal antibody produced by hybridoma rG056; variable regions SEQ ID NO: 30 and 35 (antibody, listed as Rattus norvegicus, V domains shown)
# VL: DVQMTQSPSSLAASPGESVSISCRATKSIGIYLAWYQQKPGKTFKLLIYSGSTLQSGTPSRFSGSGSGTDFTLTIRSLEPEDFGLYFCQQFYENPFTFGSGTKLEIRRA
# VH: EVQLQESGPGLVKPSQSLSLTCSVTDYSITTYFWGWIRKFPGNKMEWMGYMSYRGGTSYNPSLKSRISITRDTSKNQFFLQLNSVTTEDTATYYCARCPNYGGHSLVFDYWGQGVMVTVSS
# B2: rG019: rat anti-human CDH6 monoclonal antibody produced by hybridoma rG019; variable regions SEQ ID NO: 10 and 15 (antibody, listed as Rattus norvegicus, V domains shown)
# VL: DIQMTQSPSLLSASVGDRVTLNCKASQNIYKNLAWYQQKLGEGPKLLIYDANTLQTGIPSRFSGSGSGSDFTLTISSLQPEDVATYFCQQYYSGWAFGGVTNLELKRA
# VH: QVQLQQSGAELVKPGSSVKISCKASGYTFTRNFMHWIKQQPGNGLEWIGWIYCGDGETEYNQKFNGKATLTADRSSSTAYMELSRLTSEDSAVYFCARGVYGGFAGGYFDFWGQGVMVTVSS
# B3: rG055: rat anti-human CDH6 monoclonal antibody produced by hybridoma rG055; variable regions SEQ ID NO: 20 and 25 (antibody, listed as Rattus norvegicus, V domains shown)
# VL: DVQMTHSPSYLAASPGESVSISCKTSKNISNYLVWYQQKPGEAYKLLIYSGSTLQSGTPSRFSGSGSGTDFTLTIRSLEPEDFGLYFCQQYYEKPFTFGSGTKLEIKRA
# VH: EVQLQESGPGLVRPSQSLSLSCSVTDYSITSNYWGWIRRFPGNKMEWMGYITYSGYTSYNPSLQSRISITRDTSKNQFFLQLNSVTAEDTATYYCARSINHGGYSYVVDAWGPGASVTVSS
# B4: rG061: rat anti-human CDH6 monoclonal antibody produced by hybridoma rG061; variable regions SEQ ID NO: 40 and 45 (antibody, listed as Rattus norvegicus, V domains shown)
# VL: B3 VL with H6Q, T25A, S26T, N28S, V34A, L46V, F87S, F96L
# VH: EVQLQESGPGLVKPSQSLSLTCSVTGYSITTYYWGWIRKFPGNKMEWMGYISYSGRTSYNPSLKSRMSITRDASKNQFFLQLNSVTTDDTATYYCARSPINHGGYWYFDFWGPGTMVTVSS
# Biological target: T1, human CDH6 (full-length and EC domain deletion mutants)
# Test: Epitope analysis of rat anti-CDH6 antibody by flow cytometry using domain deletion mutants
# Type: binding
# Conditions: flow cytometry; transfected 293α cells; antibody 20 nM
# Excerpt: (§1) The full-length extracellular region of human CDH6 has five extracellular domains, EC1 (SEQ ID NO: 2), EC2 (SEQ ID NO: 3), EC3 (SEQ ID NO: 4), EC4 (SEQ ID NO: 5), and EC5 (SEQ ID NO: 6). A gene to be expressed such that each one of the five EC domains could be deleted from full-length human CDH6 was synthesized by GeneArt, and incorporated into p3×FLAG-CMV-9 vectors for mammalian expression (Sigma-Aldrich Co. LLC) according to a method known to a person skilled in the art in order to produce an expression vector for each domain deletion mutant lacking any one of EC1 to EC5.
# (§2) The epitopes to which the rat anti-human CDH6 antibodies bound were identified by flow cytometry analysis using a 293α cell line transfected with each EC domain deletion vector. Using Lipofectamine 2000 (Thermo Fisher Scientific Inc.), each domain deletion mutant expression vector produced in Reference Example 2)-2-1, or pcDNA3.1-hCDH6 for the expression of full-length human CDH6 was transiently introduced into a 293α cell line, which was a cell line derived from HEK293 cells by stable transfection with integrin αv and integrin […] expression vectors. The cells were cultured overnight under conditions of 37° C. and 5% CO2, and thereafter, a cell suspension was prepared. The suspension of the transfected 293α cells was centrifuged, and a supernatant was then removed. Thereafter, the cells were suspended by the addition of each of the 4 rat anti-CDH6 monoclonal antibodies (clone Nos: rG019, rG055, rG056 and rG061), which had been prepared in Reference Example 1)-7, or rat IgG control (R&D Systems, Inc.) (final concentration: 20 nM). The cells were left standing at 4° C. for 1 hour. The cells were washed twice with PBS supplemented with 5% FBS, and then suspended by the addition of Anti-Rat IgG (whole molecule)-FITC antibody produced in rabbit (Sigma-Aldrich Co. LLC) that had been 50-fold diluted with PBS supplemented with 5% FBS. The cells were left standing at 4° C. for 1 hour. The cells were washed twice with PBS supplemented with 5% FBS, followed by detection using a flow cytometer (Canto II; BD Biosciences). The data was analyzed using FlowJo (Tree Star, Inc.). In the histograms of FIGS. 2-1 to 2-6, the abscissa depicts FITC fluorescence intensity indicating the amount of the antibody bound, and the ordinate depicts cell count. […] Fluorescence intensity is enhanced when the antibody binds to full-length hCDH6 or each EC domain deletion mutant on the surface of cells. The rat IgG control binds to none of the transfected cells.
row,binding to EC2 deletion mutant,Molecule
1,bind,B1
2,bind,B2
3,bind,B3
4,bind,B4

# Biological target: T2, human CDH6 (full-length and EC domain deletion mutants)
# Test: as above
# Type: binding
# Conditions: flow cytometry; transfected 293α cells; antibody 20 nM
# Excerpt: as §1, §2
row,binding to full-length hCDH6,Molecule
1,bind,B1
2,bind,B2
3,bind,B3
4,bind,B4

# Same assay, conditions: from domain deletion mutant binding
row,epitope on hCDH6,Molecule
1,EC3,B1
2,EC3,B2
3,EC3,B3
4,EC3,B4
